Experiment [1] addresses T1, CD137 expressed on the cell surface (CHO/CD137 cells) (UniProt Q07011 24-255, limits assumed).
T1 construct: whole, on cells; also called cell surface CD137; Jurkat-NF-κB-Luc reporter cells overexpressing CD137
Kind of experiment: flow cytometry on CHO/CD137 cells (Surface Binding). On the procedure:
FACS analysis to evaluate the test articles for binding to cell surface CD137 was performed essentially as follows: 100 μL of CHO cells expressing CD137 (CHO/CD137) (1.0×10⁵ to 1×10⁶ cells/well) and 100 μL of serially diluted test article or control was added to each well of microtiter assay plate(s), mixed and incubated at RT for about 30 min. The cells were washed with FACS Buffer and secondary antibody (goat anti-human-APC, PE, or FITC) was then added to each well (1:1000), after which, the components were mixed and the wells were incubated at RT for about 30 min. Cells were washed and resuspended in 250 μL FACS Buffer and analyzed by flow cytometry (BD LSR Fortessa or FACSCanto II) for cell events collection. Data analysis were performed via FloJo v10.
Background: A flow cytometer gives signals particle by particle.

For experiment [2], the target named is T2, His-tagged soluble human CD137 fusion protein (huCD137) (human, UniProt Q07011 24-186).
T2 construct: extracellular domain; The ELISA method allows a His or a human Fc fusion; also called shCD137 His; huCD137-His; not shown: His tag
T2 sequence (Q07011 24-186): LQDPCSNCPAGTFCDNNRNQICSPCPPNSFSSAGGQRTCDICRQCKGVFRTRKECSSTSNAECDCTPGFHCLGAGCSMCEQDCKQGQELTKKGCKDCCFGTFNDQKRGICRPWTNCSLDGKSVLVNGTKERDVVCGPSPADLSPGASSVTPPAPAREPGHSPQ
Kind of experiment: ELISA, plate-coated soluble human CD137, hybridoma supernatant. On the procedure: (§1) ELISA assays to evaluate the test articles for CD137 binding were performed essentially as follows: flat bottom maxisorb 96-well plates were coated with soluble human or cynomolgus monkey CD137 (the extracellular domain of human or cynomolgus monkey CD137 fused to a His tag (shCD137 His or scyCD137 His) or to a human Fc Region (shCD137 hFc or scyCD137 hFc)), each at 0.5 or 1 μg/mL. The plates were washed, blocked with PBS buffer containing 0.5% bovine serum albumin and 0.1% Tween20, and incubated with a test article (e.g., cell supernatants or purified mAb). For the hybridoma supernatants anti-CD137 antibody was utilized at 1.0 μg/mL and six three-fold serial dilutions. The amount of test article binding to the immobilized CD137 (human or cynomolgus monkey) was assessed using a goat anti-mouse IgG-HRP secondary antibody. All samples were analyzed on a plate reader (Victor 2 Wallac, Perkin Elmer) and EC50 values were calculated from dose-response curves by nonlinear regression analysis.
For orientation: In an ELISA, binding on a coated surface is turned into a signal by an enzyme label.

The target of experiment [3] is T3, soluble cynomolgus monkey CD137 (cyCD137) (cynomolgus monkey, UniProt A9YYE7 24-186).
T3 construct: extracellular domain; also called scyCD137 His; scyCD137 hFc; not shown: His tag or human Fc Region
T3 sequence (A9YYE7 entry or part of it): as the sequence (Q07011 24-186) above, with P4L, N19S, R50K, T66I, P67S, F69Y, G75E, V149A counted along it
Kind of experiment: ELISA, plate-coated soluble cynomolgus CD137, hybridoma supernatant. On the procedure: as §1

Experiment [4] deals with T2, His-tagged soluble human CD137 fusion …. In words: BIACORE SPR, antibody captured on anti-human Fc, soluble CD137 His as analyte, 1:1 model. The text has this:
The binding kinetics of the anti-CD137 antibodies (having human Fc regions) were investigated using BIACORE™ SPR analysis. The anti-CD137 antibodies were captured on a Fab′2 goat-anti-human Fc surface.
(In general: Surface plasmon resonance follows binding to a sensor surface in real time, without labels.)

In experiment [5] the target is T4, PD-L1 expressed on the cell surface (CHO/PD-L1 cells) (UniProt Q9NZQ7 19-290). In words: cell-based or functional assay.
T4 sequence (Q9NZQ7 19-290): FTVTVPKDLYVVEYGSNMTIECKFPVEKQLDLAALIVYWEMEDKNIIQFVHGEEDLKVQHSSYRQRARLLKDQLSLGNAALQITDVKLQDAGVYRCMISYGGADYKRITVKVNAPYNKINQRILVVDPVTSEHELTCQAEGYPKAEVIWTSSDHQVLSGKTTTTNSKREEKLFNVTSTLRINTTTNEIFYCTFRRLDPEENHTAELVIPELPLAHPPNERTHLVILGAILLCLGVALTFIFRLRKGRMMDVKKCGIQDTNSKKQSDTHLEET
Experiment [6] has as its target T4, PD-L1 expressed on the cell surface …. Kind of experiment: cell-based or functional assay. This is another data set of the same source.
In experiment [7] the target is T1, CD137 expressed on the cell surface …. Kind of experiment: flow cytometry (FACS) on CHO cells expressing CD137, MFI.
Experiment [8] addresses T2, His-tagged soluble human CD137 fusion …. Kind of experiment: ELISA, plate-coated soluble human CD137.
Experiment [9] deals with T3, soluble cynomolgus monkey CD137 …. Kind of experiment: ELISA, plate-coated soluble cynomolgus CD137.

Where two headings read alike, the source gives them in different places.

T1 sequence (Q07011 24-255 limits assumed): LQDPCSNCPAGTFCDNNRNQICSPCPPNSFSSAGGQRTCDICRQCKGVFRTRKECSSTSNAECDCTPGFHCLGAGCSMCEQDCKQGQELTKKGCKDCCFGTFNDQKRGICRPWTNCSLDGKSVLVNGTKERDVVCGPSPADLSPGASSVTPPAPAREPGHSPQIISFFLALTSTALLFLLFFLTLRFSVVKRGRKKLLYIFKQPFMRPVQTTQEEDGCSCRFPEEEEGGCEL

B1: CD137 MAB-6 (1.1) (antibody, V domains shown)
VH: QVQLQESGPGLVKPSETLSLTCTVSGGSISSYYWSWIRQPPGKGLEWIGRIYTSGSTNYNPSLKSRVTMSVDTSKNQFSLKLSSVTAADTAVYYCARDGWYDEDYNYYGMDVWGQGTTVTVSS
VL: EIVMTQSPATLSLTPGERATLSCRASQSVSSNYLSWFQQIPGQAPRLLIYGASTRATGIPARFSGSGSGTDFTLTISSLQPEDFAVYYCQQDYDLPWTFGQGTKVEIK
notes: Fully human variable domains from a TRIANNI MOUSE hybridoma
For orientation: EC50 means the concentration that produces a half-maximal response. One may read the Kd as the free concentration of one partner at which half of the binding sites on the other are occupied at equilibrium, for simple one-to-one binding. By koff is commonly meant a measure of how fast the partners let go of each other. A word on the kon: it is a measure of how fast the partners come together. For the molecule B1, the EC50 is 0.021 µg/mL in experiment [1], 0.038 µg/mL in experiment [2] and 0.049 µg/mL in experiment [3]. Further, the affinity in experiment [4], expressed as Kd, was 16 nM. Besides, the koff in experiment [4] is 0.0067 s⁻¹. Also, the kon in [4] worked out at 420000 M⁻¹ s⁻¹.

B2: TRIDENT-A4 (bispecific antibody, human IgG1, kappa, L234A L235A)
chain 1: EIVMTQSPATLSLTPGERATLSCRASQSVSSNYLSWFQQIPGQAPRLLIYGASTRATGIPARFSGSGSGTDFTLTISSLQPEDFAVYYCQQDYDLPWTFGQGTKVEIKGGGSGGGGQVQLQESGPGLVKPSETLSLTCTVSGGSISSYYWSWIRQPPGKGLEWIGRIYTSGSTNYNPSLKSRVTMSVDTSKNQFSLKLSSVTAADTAVYYCARDGWYDEDYNYYGMDVWGQGTTVTVSSGGCGGGEVAALEKEVAALEKEVAALEKEVAALEKGGGDKTHTCPPCPAPEAAGGPSVFLFPPKPKDTLYITREPEVTCVVVDVSHEDPEVKFNWYVDGVEVHNAKTKPREEQYNSTYRVVSVLTVLHQDWLNGKEYKCKVSNKALPAPIEKTISKAKGQPREPQVYTLPPSREEMTKNQVSLWCLVKGFYPSDIAVEWESNGQPENNYKTTPPVLDSDGSFFLYSKLTVDKSRWQQGNVFSCSVMHEALHNHYTQKSLSLSPGK
chain 2: EIVMTQSPATLSLTPGERATLSCRASQSVSSNYLSWFQQIPGQAPRLLIYGASTRATGIPARFSGSGSGTDFTLTISSLQPEDFAVYYCQQDYDLPWTFGQGTKVEIKGGGSGGGGQVQLQESGPGLVKPSETLSLTCTVSGGSISSYYWSWIRQPPGKGLEWIGRIYTSGSTNYNPSLKSRVTMSVDTSKNQFSLKLSSVTAADTAVYYCARDGWYDEDYNYYGMDVWGQGTTVTVSSGGCGGGKVAALKEKVAALKEKVAALKEKVAALKE
heavy: EVQLVESGGGLVQPGGSLRLSCAASGFTFSSYTMSWVRQAPGKGLEWVAYISIKGGTTYYPDTVKGRFTISRDNAKNSLYLQMNSLRAEDTAVYYCARQGLPYYGDYWGQGTLVTVSSASTKGPSVFPLAPSSKSTSGGTAALGCLVKDYFPEPVTVSWNSGALTSGVHTFPAVLQSSGLYSLSSVVTVPSSSLGTQTYICNVNHKPSNTKVDKRVEPKSCDKTHTCPPCPAPEAAGGPSVFLFPPKPKDTLYITREPEVTCVVVDVSHEDPEVKFNWYVDGVEVHNAKTKPREEQYNSTYRVVSVLTVLHQDWLNGKEYKCKVSNKALPAPIEKTISKAKGQPREPQVYTLPPSREEMTKNQVSLSCAVKGFYPSDIAVEWESNGQPENNYKTTPPVLDSDGSFFLVSKLTVDKSRWQQGNVFSCSVMHEALHNRYTQKSLSLSPGK
light: DIQMTQSPSSLSASVGDRVTITCKASQDVNEAVAWYQQKPGKAPKLLIYWASTRHTGVPSRFSGSGSGTDFTLTISSLQPEDFATYYCQQHYNTPLTFGQGTKVEIKRTVAAPSVFIFPPSDEQLKSGTASVVCLLNNFYPREAKVQWKVDNALQSGNSQESVTEQDSKDSTYSLSSTLTLSKADYEKHKVYACEVTHQGLSSPVTKSFNRGEC
notes: Trivalent; two CD137 MAB-6(1.1) sites, one hPD-L1 MAB-2(3.2) site
As usually defined, the EC50 (read off the curve) is the concentration giving half of the maximal effect. On to B2, for which the “EC50 (read off the curve)” value in [5] was roughly 0.2 µg/mL; in experiment [6] it was roughly 0.4 µg/mL; in experiment [7], roughly 0.01 µg/mL.

B3: chCD137 MAB-3 (antibody, V domains shown)
VH: QVQLQQPGAELVRPGASVKLSCKASGYTFTSYWINWVKQRPGQGLEWIGNIYPSDSYTNYNQKFKDKATLTVDKSSSTAYMQLSSPTSEDSAVYYCTRDYGSSYSFDYWGQGTTLTVSS
VL: DIQMTQTTSSLSASLGDRVTISCRPSQDISNYLNWYQQKPDGTVKLLIYYTSRLRSGVPSRFSGSGSGTDYSLTISNLEQEDIATYFCQQGDTLPYTFGGGTKLEIK
In experiment [8], B3 displayed an EC50 of 0.034 µg/mL. In addition, the EC50 in experiment [9] came out at 0.044 µg/mL. In experiment [1], this molecule displayed an EC50 of 0.01 µg/mL. For the same molecule, in [4], the Kd came out at 38 nM, the dissociation rate constant (koff) turned out to be 0.025 s⁻¹ and the kon turned out to be 660000 M⁻¹ s⁻¹.

The values above are taken from patent publication US20230094162A1 (MacroGenics, published 2023).
